The values that follow come from paper doi:10.1101/2025.11.04.686334.

pKd: −log10 of the molar value.

In the experiment the target is FluA-20 mAb. Kind of experiment: BLI. In general terms: In BLI a coated tip is dipped into the sample, and binding shifts an interference pattern.

The pKd is −log10 of the Kd, conventionally taken in molar units. A higher pKd goes with a small Kd.

Sequence of HA220-2 (Q9NZ52 16-146): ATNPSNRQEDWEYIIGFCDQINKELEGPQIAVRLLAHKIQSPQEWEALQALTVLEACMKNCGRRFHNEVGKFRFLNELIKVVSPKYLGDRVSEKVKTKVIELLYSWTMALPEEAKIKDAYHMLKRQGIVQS
Sequence of FluA-20 mAb (heavy, as listed by the source, chain 1 of 2): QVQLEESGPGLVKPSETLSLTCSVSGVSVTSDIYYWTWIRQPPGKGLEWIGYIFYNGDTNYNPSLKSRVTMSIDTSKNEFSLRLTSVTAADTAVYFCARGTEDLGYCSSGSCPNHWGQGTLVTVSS
Sequence of FluA-20 mAb (light, as listed by the source, chain 2 of 2): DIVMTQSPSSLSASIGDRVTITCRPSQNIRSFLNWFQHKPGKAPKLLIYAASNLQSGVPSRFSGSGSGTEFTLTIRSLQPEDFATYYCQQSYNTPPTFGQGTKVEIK

In turn, HA220-2 (from UniProt Q9NZ52 16-146) showed a pKd of 6.01.
